Three molecules from publication PMC7432041, “[…], Artificial Tetrameric Lectins: A Tool to Screen Ligand and Pathogen Interactions” (International Journal of Molecular Sciences, 2020) can be followed below.

Test in all cases: SEC-MALS; SEC-LS (static and dynamic light scattering, refractive index, absorbance at 280 and 550 nm); Shodex KW 802.5 column at 4 °C, 25 mM Tris pH 7.5, 150 mM NaCl, 4 mM CaCl2, 0.5 mL/min; 50 µL injected
The target in data set [1] is DC-SIGNR Fc-CRD (fusion of the DC-SIGNR CRD with human IgG1 Fc) (human).
In a further data set the target is T1, Cy3-NeutrAvidin (UniProt P02701 25-152, Cy3 (Cy3-NHS ester, degree of labelling 0.5)).
T1 construct: NeutrAvidin, a deglycosylated tetrameric protein derived from avidin; subunit MW = 14.5 kDa as printed; Deglycosylated avidin; also called NeutrAvidin-Cy3; tetrameric NeutrAvidin; source: bought: ThermoFisher Scientific; labelled with Cy3-NHS ester
T1 sequence (P02701 25-152): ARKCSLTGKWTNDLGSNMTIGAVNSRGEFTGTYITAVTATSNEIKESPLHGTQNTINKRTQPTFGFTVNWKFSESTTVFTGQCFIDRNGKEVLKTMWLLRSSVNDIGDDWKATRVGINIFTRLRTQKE
The settings on record: both partners purified.

Data set [2] concerns the molecule itself.

As a reminder, the stoichiometry N is a count of units in the complex or per binding partner.

Molecule “DC-SIGNR Fc-CRD (fusion of the DC-SIGNR CRD with human IgG1 Fc) (Fc fusion)” showed a stoichiometry N in data set [1] of 2.

B1: Biotin sortagged DC-SIGNR-CRD (biotin-LPRT-GGG-DC-SIGNR CRD) (domain or fragment, human)
chain: LPRTGGGLCRHCPKDWTFFQGNCYFMSNSQRNWHDSVTACQEVRAQLVVIKTAEEQNFLQLQTSRSNRFSWMGLSDLNQEGTWQWVDGSPLSPSFQRYWNSGEPNNSGNEDCAEFSGSGWNDNRCDVDNYWICKKPAACFRDE
modifications: biotin on the N-terminus (biotin-LPRT peptide joined by sortase A)
notes: sortase A motif of the biotin-LPRT-OMe peptide, transferred onto the N-terminal glycines; poly-Gly extension at the N-terminus of the CRD, exposed after factor Xa cleavage; DC-SIGNR (L-SIGN), human, CRD, amino acids 264 to 399; optimized synthetic gene in pET30-b between XbaI and HindIII; Theoretical mass 16.5 kDa (ESI-MS 16,556); also called biotin-CRD; biotinylated DC-SIGNR CRD; source: …
Regarding B1, the “stoichiometry N” value with Cy3-NeutrAvidin is 4 biotin-CRD per NeutrAvidin tetramer (4:4 by chains).

B2: DC-SIGNR ECD (natural extracellular domain of human DC-SIGNR) (domain or fragment, UniProt Q9H2X3 78-399, looked up)
chain: SLSQEQSEQDAIYQNLTQLKAAVGELSEKSKLQEIYQELTQLKAAVGELPEKSKLQEIYQELTRLKAAVGELPEKSKLQEIYQELTRLKAAVGELPEKSKLQEIYQELTRLKAAVGELPEKSKLQEIYQELTELKAAVGELPEKSKLQEIYQELTQLKAAVGELPDQSKQQQIYQELTDLKTAFERLCRHCPKDWTFFQGNCYFMSNSQRNWHDSVTACQEVRAQLVVIKTAEEQNFLQLQTSRSNRFSWMGLSDLNQEGTWQWVDGSPLSPSFQRYWNSGEPNNSGNEDCAEFSGSGWNDNRCDVDNYWICKKPAACFRDE
notes: DC-SIGNR (L-SIGN), human, extracellular domain, amino acids 78 to 399; optimized synthetic gene in pET30-b between NdeI and HindIII; also called natural tetrameric DC-SIGNR ECD; L-SIGN ECD
On to B2, for which the “stoichiometry N” value in data set [2] is 4.
